Patent publication US6258556, “cDNA and genomic clones encoding human µ opiate receptor and the purified gene product” (The United States of America as represented by the …, dated 2001)
Non-standard residues stand in square brackets, D forms with d. No end group written: not given here. *: point of attachment. NMeF = CN[C@@H](Cc1ccccc1)C(=O)O; NHCH2CH2OH = OCCN*

Assays:
[1] = target: human µ opiate receptor (human); assay: displacement of [3H]DAMGO from COS cells expressing hµOR1; paragraph 40 says 'low affinities', CLM-00014 calls the value a KD
Experimental: (§1) COS cells were transfected by electroporation with 20 µg/10^7 cells of plasmid pcDNA1hµOR1, grown for two to three days and tested for opiate receptor expression by radioligand binding as described, except that whole cell suspensions were used. Adenyl cyclase activities were assessed by radioimmunoassay as described. Cells transfected with the pcDNA1 vector alone served as negative controls.

[2] = target: human µ opiate receptor (human); assay: saturation radioligand binding, whole COS cells transfected with pcDNA1hµOR1
Experimental: as §1

[3] = target: human µ opiate receptor (human); assay: [3H]DAMGO binding to COS cells expressing hµOR1, with against without 50 µM Gpp(NH)p
Experimental: as §1

[4] = target: human µ opiate receptor (human); assay: [3H]DAMGO binding to COS cells expressing hµOR1, with sodium chloride as low as 5 mM; CLM-00019 ties this to DAMGO
Experimental: as §1

[5] = target: human µ opiate receptor (human); assay: displacement of [3H]DAMGO from COS cells expressing hµOR1; 'low affinities of less than 100 nM' is read as weaker than 100 nM
Experimental: as §1

B1: dynorphin A 1-17 (peptide)
peptide: YGGFLRRIRPKLKWDNQ
- Kd [1]: 284 nM

B2: (D-ala^2, N-methyl-phe^4, glyol^5) enkephalin (peptide)
peptide: Y[dA]G[NMeF][NHCH2CH2OH]
modifications: not fully specified (C-terminus); printed as (D-ala^2, N-methyl-phe^4, glyol^5) enkephalin; also: [3H] label in binding assays
- Kd [2]: 1.2 nM
- fold reduction of affinity with 50 µM Gpp(NH)p [3]: > 3 fold
- fold reduction of binding affinity with 5 mM sodium chloride [4]: 2 fold

B3: DPDPE (D-pen^2, D-pen^5 enkephalin) (peptide)
peptide: YXGFX
modifications: D-penicillamine at 2 and at 5 (written X)
- Kd [5]: > 100 nM
